# Experiment: yeast display, Sf9 membrane polyspecificity reagent, FACS + sequencing; frameworks hold sequencing errors
# Summary of the method: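 Nanobodies from a synthetic yeast display library (Saccharomyces cerevisiae BJ5465), induced 36–48 hours with galactose, were stained 1 hour at 4 °C with 10% biotinylated, detergent-solubilized Sf9 membrane reagent, enriched on streptavidin microbeads, then FACS-sorted. Anti-HA (expression) and streptavidin (reagent binding) fluorescence set low and high (top ~1%) gates. Polyreactivity labels come from the gate of origin. Genes were colony-PCR amplified, MiSeq 2 × 250 sequenced and filtered by CDR length.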
row,Sequence,polyreactivity (PSR sort gate)
1,QVQLVETGGGLVQAGGSLRLSSAASGRTFYRYAMGWYRQAPGKDRELVATISRSGANTYADSVKGRFTISRDNAKNTVYLQMNSLKPEDTAVYYCNAGQYKGWGRMDYWGQGTQVTVSS,high polyreactivity
2,QVQLVETGGGLVQAGGSLRLSSAASGSTFRDYDMGWYRQARGKERELVAAISLSGGRTHYADSVKGRFTISRDNAKNTVYLQMNSLKPEDTAVYYCAARNSGPVQYYYWGQGTHVTVSS,low polyreactivity
3,QVQLVETGGGLVQAGGSLRLSSAASGSTFTYNVMGWYRQAPGKERELVAAISRIAGRTYYADSVKGRFTISRDTAKNTVYLQMNSLKPEDTAVYYCAALALKWRYDFWGQGTQVTVSS,high polyreactivity
4,QVQLVETGGGLVQAGGSLSLSCAASGSTFAYYAMGWYRQAPGKERELVAGITWTGGSTYYADSVKGRFTISRDNAKNTVYLQMNSLKPEDTAVYYCAVTYPYGYEYDHWGQGTQVTVSS,low polyreactivity
5,QVQLVETGGGLVQAGGSRRLICAATGRIFYWYAMGCYRQAPGKERELVATISSAGTTYYADSVKGRFTISRDNAKNTVYLQMNSLKQEDTAVYYCAVPRVGLHGIGSDYWGQGTQVTVSS,high polyreactivity
6,QVQLVETGGGLVQAGGTLRLSCAASGSTFNAYAKGWYIQAPGKERELVAVISSSGGRTYYADSEKGRFTISRDNAKNTVYLQLNSLKPEDTAVYYCNADVKYLYNHWGQGTQVTVSS,high polyreactivity
7,QVQLVETGGGLVQAGSSLRLSCAASGSTFIVYAMGWYRQAPGKEREFVAAITYRGGSSYYADSVKGRFTISRDNAKNTVYLQMNSLKPEDTAVYYCATETDRYPYIRRYQFPYYYWGQGTQVTVSS,high polyreactivity
8,QVQLVETGGRKVQPGGSLRLSCAASRRTFDHNAMGWYRQAPGKERELVAAITWSGGITDYADSVKRPFTISRDNAKNTVYLEMFSLKPEDTAVWGQGTQVSVSS,low polyreactivity
9,QVQLVETGRGLVQAGGSLRLSSAASGFTFGPYDMGWYIQAPGKERELVATIRSGDSTKYADSVKGRFTISRDNAKNTVYLQMNSLKPEDSAGYYCARDARASARRKRDDYWGQGTQVTVSS,low polyreactivity
10,QVQLVETVGCLVQAGGSLRLSSAASGRIFPYNAMGRYRQAPGKERELVAAIDWRDNTYYADSVKGRFTISRDNATNTVYLQMNSLIPEDTAVYDCNVDYTDYFLNKYDYWGQGTQVTVSS,low polyreactivity
11,QVQLVGSGGGLVQAGGSLRLSCAASGRTFDRNTMGWYRQAPGKERELVAAISSSGGSTYYADSVKGRFTISRDNAKNTVYLQMNSLKPEDTAVYYCAVLSRQYFRYGYDYWGQGTQVTVSS,high polyreactivity
12,QVQLVGSGGGLVQAGGSLRLSCAASGRTFWTNAMGWYRQAPGKERELVAAIRNSGGRTYYADSVKGRFTISRDNAKNTVYLQMNSLKPEDTAVYYCNARSSIRPRQGGYEHWGQGTQVTVSS,low polyreactivity
13,QVQLVKSGGGLVQAGGSLRLSCAASGFIIPEYTMGWYRPAPGKERELVAAISGSGGSTYYADSVKGRFTISRDNAKNTVYLQMNSLKPEDTAVYYCAASYAVSRYLQTYAHAHGYWGQGTQVTVSS,low polyreactivity
14,QVQLVKSGGGLVQAGGSLRLSCAASGFIIPEYTMGWYRQAPVKERELVAAISGSGGSTYYADSVKGRFTISRDNAKNTVYLQMNSLKPEDTAVYYCAASYAVSRYLQTYAHAHGYWGQGTQVTVSS,low polyreactivity
15,QVQLVKSGGGLVQAGGSLRLSCAASGSTFNKYTMGWYRQAPWKERELVAAITSGDSTYYADSVKGRFTISRDNAKNTVYLQMNSLKPEDTAVYYCAKSLRAYRHVIYGKALYSWGQGTQVTVSS,low polyreactivity
16,QVQLVQSGGGLFQAGGSLRLSCAASGRTFEPNAMGWYRQAPGKERQLVAAITNGGSTSYADSVKGRFTISRDNAKNSVYLQMNSLKPEDTAVYYFAGDLGRNLLHTYYYWGQGTQVTVSS,low polyreactivity
17,QVQLVQSGGGLVHAGGSLRLSCAASGRIFGINAMGWYIQAPGKERELVAAINWSGGSTYYADSVKGRFTISRDNAKNTVYLQMNSLKPEDTAVYYCADQKYQRVGYWGQGTQVTVSS,high polyreactivity
18,QVQLVQSGGGLVQAGGSLRLSCAASGLIFYPYAMGWYRQAPGKERELVAAITSGDSTYYADSVKGRFTISRDNAKNTVYLQMNSLKPEDTAVYYCNAYQWGGRYWLVTYDYWGQGTQVTVSS,low polyreactivity
19,QVQLVQSGGGLVQAGGSLRLSCAASGLTLRGNTMGWYRQAPGKEREMVADITASAGSTYYADSVKGRFTISRDNAKNTVYLQMNSLKPEDTAVYYCATVRYDVAAWAYSEYYYWGQGSQVTVSS,low polyreactivity
20,QVQLVQSGGGLVQAGGSLRLSCAASGRIFADNAMGWYRQAPGKERELVADITYSGGSTYYADSVKGRFTISRDNAKNTVYLQMNILKPEDTVVYYCAAGRSSLYFPGYYYWGQGTLVTVSS,low polyreactivity
21,QVQLVQSGGGLVQAGGSLRLSCAASGRIIGVNAMGWYRLAPGKERQLVADISSGRSTTYADSVKGRFTISRDNAKNTVYLQMNSLKPEDTALYYCNARFRFRYKFPSRHSWGQGSQVTVSS,high polyreactivity
22,QVQLVQSGGGLVQAGGSLRLSCAASGRTFGYYAMGWYRQAPGQERELVAAITRTGGSTHYADSVKGRFTISRDNAKNTVYVQMNSLKPVDTAVYYCARDYRYTIPYDYWGQGTQVTVSS,low polyreactivity

row,Sequence,polyreactivity (PSR sort gate)
1,QVQLVQSGGGLVQAGGSLRLSCAASGRTFPIYAMGWYRQAPWKERELVAAITRGGRTNYADSVMGRFTISRDNAKNTVYLQMNSLKPEDTAVYYCDARTYGTYLYAEYDYWGQCTQVTVSS,high polyreactivity
2,QVQLVQSGGGLVQAGGSLRLSCAASGSIFGYYAMGWYRQAPGKERELVAVITSVATTNYADSVKGRFTISRDNAKNTVYLQMNSLKPEDTAVYYCAARPQVKRGRYGYWGQGTQVTVSS,low polyreactivity
3,QVQLVQSGGGLVQAGGSLRLSCAASGSTFWMNAMGWYRQAPGKEREFVAAITVRGGSTYYADSVKGRFTISRDNAKNTVYLQMNSLKPEDTAVYYCNRPSSLAWPWTGSFSRYDYWGQGTQVTVSS,low polyreactivity
4,QVQLVQSGGGLVQAGGSLRLSCAASGYTIYLKAMGWNRQAPGKERELVAAITGSGDDTYYADSVKGRFTISRDNAKNTVYLQMKIMIPEDTAVYYCAARPYYTSSYKDYEYWGQGTQVTVSS,high polyreactivity
5,QVQLVQSGGGLVQAGGSLRLSCAASQNAMGWYRQAPGKERELVAAISKGGGRTYYADSVKGRFTISRDNAKNTVYLQMNSLKPEDTAVYYCNARYYSSQDADRHEYWGQGTQVTVSS,high polyreactivity
6,QVQLVQSVGGLVQAGGSLRLSSAASGSTFTVYAMGWYRQAPGKERELVAAISWRGGSTYYADSVKGRFTISRDNAKKTVYLQMNSLKPEDTAVYYCAADGLDIAPYGYGYWGQGTQVTVSS,low polyreactivity
7,QVQLVQSWRGLVQAGASLRLSCAASGRIFPGYAMGWYREAPGKERELDASSSRTGRTNYADSVKGRFTISRVNAKNTVYLQMNRLKPEYTAVYYCANASPWYFWGYDYWGQGSQVTVSS,low polyreactivity
8,QVQLVQTGGGLVQAGGSLRLSCAASGRIFLSYTRGWYSQAPGKERELVATIDSRVSTNYADSVKGRFTISRDNAKNTVYLQMNSLKPEDTAVYYCNADGFYSSHGYDYCGQGTQVTVSS,low polyreactivity
9,QVQLVQTGGGLVQAGGSLRLSCAASGRIFYRYDMGCYRQAPGKERSLVAAIRYSGGRTYYADSVKGRFTISRDNAKNTVYLQMNSLKPEDNAVYYCADDEFFWSSEEDYWGQVTQVTVSS,low polyreactivity
10,QVQLVVSGGGLVQAGGSLRLSCAASGFIFVNYAMGWYRQAPGKDGELVAAISRGGGRTYYADSVKGRFTISRDNAKNTVYLQMNSLKPEDTAVYYCNARRLGYHQRYFWGQGTQVTVSS,high polyreactivity
11,QVQLVVSGGGLVQAGGSLRLSCAASGFTFRYYAMGWYRQAPGKEREMVAAITRGAGSTYYADSVKGRFTITRDNAKNTVYLQMNSLKPEDTAVYYCAAEFFQYYVATPFDPYNYWGQGTQVTVSS,low polyreactivity
12,QVQLVVSGGGLVQAGGSLRLSCAASGIIFPFYVMGWYRQAPGKERELVAAITWSGDGTYYADSVKGRFTISRDNAKNTVYLQMNSLKPEDTAVYYCAAQWYYGGVKYYYWGQGTQVTVSS,low polyreactivity
13,QVQLVVSGGGLVQAGGSLRLSCAASGNIFESYGMGGYRQAPGKERELVANINTSCGSTYYADSVKGRFTISRDNAKNTVYLQMNSLKPEDTAVYYCAAEWYPYPWGYGYWGQGTQVTVSS,low polyreactivity
14,QVQLVVSGGGLVQAGGSLRLSCAASGSTFFKYVMGWYIQAPGKERELVAAITWRGGRTYYADSVKGRFTISRDNEKNTVYLQMNSLIPEDTAVYYCAAYDQSLYGRRYDYWGQGTQVTVSS,high polyreactivity
15,QVQLVVSGGGLVQAGGSLRLSCAASGSTIASNAMGWYRQAPGKERELVAGISSSDGGTYYADSVKGRFTISRDNAKNNVYLEMNSLKREDTAVYYCNAPPGTFQWQGHSDYWGQGTQVTVSS,low polyreactivity
16,QVQLVVSGGGLVQGGGSLRLSWAASGFILALNAMGWYIQAPGKEREFVADISWSGDSTYYADSVKGRFTISRDNAKNTFYLQMNSLKPEDTAVYYCAADPYYNWGYYYWGQGTQVTVSS,low polyreactivity
17,QVQLVVSGGGLVQPGGSLRLSCAASGRIFGLYAMGWYRQAPGKEREVVAAYADSVKGRFTISRDNAKNTVYLQMNSLKPEDTAVYYCAKGPLYAGYSIDLRDFNYWGQGTQVTVSS,low polyreactivity
18,QVQMQESGGGLVQAGGTLRLSCAASGSFSADEDMGWYRQAQGKEREFVAGISVGGNTNYADSVKGRFTISRENAKNTVYLQINSLKPEDTAVYYCAVLQDVYDALDYWAQGTQVTVSS,high polyreactivity
19,QVQPVESAGGLVQAGGSLRLSCSASGFIFKYYAMGWYRQAPGKERELVAAISYSGTRTYYADSVKGRFTISRDNAKNTVYLQMNSLKPEDTAVYYCNARDWSFVGTYDYWGQGTQVTVSS,high polyreactivity
20,QVQPVESGGGLVHAGGSLRLSCAASGSIFWYNAMGWYRQAPGQEWELVAAINWSGGSTFYADSVKGRFTISRDNEKNTVYLQMNSLNPEDTAVYYCAADDWSTGYDFWGQGTQETVSS,high polyreactivity
21,QVQQHESGDGLVQAVGSLRLTCAASGYISGNYYMGWYRQATGKERELVAGIDAFGSSTNYADCVKGRFTISRDNAKNTVYLQMNSLKPEDTAVYYCAARPDGDRLFYYWGQGTQVTVSS,low polyreactivity

# From the nanobody polyreactivity screen of Harvey et al. (2022)
